According to patent US20210364527A1:

Target: polypeptide with a terminal leucine residue (rest of sequence not given)
Assay: single-molecule dwell time analysis; panel Leu; filtered 0.00s<=dur<=20.00s and magnitude above baseline > 15.0

Substance: Synechococcus elongatus ClpS2
- mean pulse duration (dashed line of the distribution): 0.35 s
